Experimental data as given in patent US20070254831A1 (published 2007).
Where two headings read alike, the source gives them in different places. Values belong to the binder of their own block, whether it stands above or below them. Bridge positions count the residues as written; N and C are the ends. Square brackets hold non-standard residues; d marks the D form. Ends that are not written are not given here.

Legend:
[1] = target: T1, soluble human FcRn (human, UniProt P55899 24-297; P61769 21-119, biotinylated (Sulfo-NHS-LC-Biotin) in the ELISA; amine-coupled to CM5 chip in SPR); assay: ELISA, competitor human IgG
T1 construct: also called shFcRn; biotinylated shFcRn
Description: (§1) The wells were coated with 100 μl/well of 1 μg/ml biotinylated-shFcRn in Buffer A. The plate was sealed and incubated at 37° C. for 2 hours. Afterwards, the plate washed with 200 μl/well of Buffer B (Buffer B: 100 mM MES pH 6, 150 mM NaCl, 0.5% BSA IgG-free (Jackson ImmunoResearch, West Grove, Pa.), 0.05% Tween-20). […] To allow for mixing, the plate was rocked for 2 minutes, sealed and incubated at 37° C. for 2 hours. […] The plate was covered, incubated for 30 minutes at room temperature and washed 4 times with 200 μl/well of ice-cold buffer B. SureBlue TMB substrate solution (100 μl/well, KPL, Gaithersburg, Md.) was added and the plate was allowed to incubate at room temperature until color developed, which took 5 to 10 minutes. Once color developed, 100 μl/well of TMB stop solution (KPL, Gaithersburg, Md.) was added and the absorbance was measured at 450 nm. The data was plotted as absorbance vs. peptide concentration to derive the inhibitory concentration 50% (IC₅₀) values.

[2] = target: T1, soluble human FcRn; assay: SPR, pH 6
Description: (§2) The following steps were performed to cross-link soluble human or cynomolgus FcRn to the dextran surface of a CM5 sensor chip (Biacore AB, Uppsala, Sweden) by an amine coupling reaction involving 1-ethyl-(3-dimethylaminopropyl)-carbodiimide hydrochloride (EDC) (Biacore AB, Uppsala, Sweden) and N-hydroxysuccinimide (NHS) (Biacore AB, Uppsala, Sweden) as recommended by Biacore (BIAapplications Handbook, version AB, section 4.2, Biacore AB, Uppsala, Sweden). […] Residual sites on the FcRn flow cell were blocked with 1 M ethanolamine hydrochloride pH 8.5 (Biacore AB, Uppsala, Sweden). A control flow cell was blocked with ethanolamine for reference subtraction. For analysis of the monomeric peptides, FcRn was coated to a final density of 4000-5000 response units (RU). For analysis of the peptide dimers, FcRn was coated to a density of 2000-2500 RU. All SPR measurements were performed using a BIACORE 3000 Instrument (Biacore AB Uppsala, Sweden). For measurements done at either pH 6 or pH 7.4, experiments were performed in 50 mM phosphate, 100 mM sodium chloride, 0.01% surfactant P20 (Biacore AB, Uppsala, Sweden).
(§3) Ten, 2-fold dilutions of the peptide were injected over the FcRn-CM5 chip at a rate of 20 μl/min for 2 min. The peptide was dissociated from the chip for 2.5 minutes with buffer. Any remaining peptide was removed from the chip with a 30 second injection of HBS-P buffer (Biacore AB, Uppsala, Sweden) at a rate of 30 μl/min. Sensorgrams were generated and analyzed using BiaEval software version 3.1 (Biacore AB, Uppsala, Sweden). The equilibrium RU observed for each injection was plotted against concentration. The equilibrium KD values were derived by analysis of the plots using the steady state affinity model included in the BiaEval software.

[3] = target: T1, soluble human FcRn; assay: ELISA, competitor human IgG; remark: listed apart in the source
Description: as §1

[4] = target: T1, soluble human FcRn; assay: ELISA, competitor human IgG; remark: listed apart in the source
[5] = target: T1, soluble human FcRn; assay: ELISA, competitor human IgG; remark: listed apart in the source
Description: as §1

[6] = target: T1, soluble human FcRn; assay: SPR, pH 6; remark: listed apart in the source
Description: as §2, §3

[7] = target: T1, soluble human FcRn; assay: SPR, pH 7.4
Description: as §2, §3

[8] = target: T1, soluble human FcRn; assay: ELISA, competitor human IgG; remark: listed apart in the source
Description: as §1

B2: Peptide No. 88 (peptide)
peptide: QRFXTGHXGGLYPCNGP
modifications: Pen at 4; 2-MePhe at 8; disulfide; C-terminal amide
Kd [2]: 0.2 µM | IC50 [1]: 1 µM

B3: Peptide No. 80 (as printed in Table 18) (peptide)
peptide: RFXTGHFXLYPC
modifications: Pen at 3; X at 8 = 3-amino-N-1-carboxymethyl-2,3,4,5-tetrahydro-1H-[1]-benzazepine-2-one (drawing CHEM-US-00083); disulfide; C-terminal amide
IC50 [3]: 159 µM

B4: Peptide No. 57 (peptide)
peptide: QRFXTGHXGGLYPCNGP
modifications: Pen at 4; pentafluoro-Phe at 8; disulfide; C-terminal amide
Kd [2]: 70 µM

B5: Peptide No. 58 (peptide)
peptide: QRFXTGHXGGLYPCNGP
modifications: Pen at 4; 2-pyridylalanine at 8; disulfide; C-terminal amide
IC50 [1]: 90 µM

B6: Peptide No. 167 (peptide)
peptide: QRFVTGHFG[dP]LYPVANGP-NH2
modifications: N-terminus assumed
SMILES: CC(C)C[C@H](NC(=O)[C@H]1CCCN1C(=O)CNC(=O)[C@H](Cc1ccccc1)NC(=O)[C@H](Cc1c[nH]cn1)NC(=O)CNC(=O)[C@@H](NC(=O)[C@@H](NC(=O)[C@H](Cc1ccccc1)NC(=O)[C@H](CCCNC(=N)N)NC(=O)[C@@H](N)CCC(N)=O)C(C)C)[C@@H](C)O)C(=O)N[C@@H](Cc1ccc(O)cc1)C(=O)N1CCC[C@H]1C(=O)N[C@H](C(=O)N[C@@H](C)C(=O)N[C@@H](CC(N)=O)C(=O)NCC(=O)N1CCC[C@H]1C(N)=O)C(C)C
notes: printed with -VA- before NGP
IC50 [4]: 93 µM

B7: Peptide No. 55 (peptide)
peptide: QRFXTGHXGGLYPCNGP
modifications: Pen at 4; 4-amino-Phe at 8; disulfide; C-terminal amide
Kd [2]: 1 µM

B9: Peptide No. 181 (peptide)
peptide: RFXTGHFXLYPC
modifications: Pen at 3; X at 8 = 3-amino-N-1-carboxymethyl-2,3,4,5-tetrahydro-1H-[1]-benzazepine-2-one (drawing CHEM-US-00084); disulfide; C-terminal amide
IC50 [3]: 1.2 µM

B11: Peptide No. 56 (peptide)
peptide: QRFXTGHXGGLYPCNGP
modifications: Pen at 4; 4-methoxy-Phe at 8; disulfide; C-terminal amide
Kd [2]: 18 µM | IC50 [1]: 100 µM

B12: Peptide No. 89 (peptide)
peptide: QRFXTGHXGGLYPCNGP
modifications: Pen at 4; 3-MePhe at 8; disulfide; C-terminal amide
Kd [2]: 0.67 µM | IC50 [1]: 4.1 µM

B16: Peptide No. 95 (peptide)
peptide: QRFXTGHWGGLYPCNGP
modifications: Pen at 4; disulfide; C-terminal amide
IC50 [1]: 26 µM

B19: Peptide No. 62 (peptide)
peptide: QRFXTGHXGGLYPCNGP
modifications: Pen at 4; 2-napthylalanine at 8; disulfide; C-terminal amide
Kd [2]: 11 µM | IC50 [1]: 90 µM

B21: Peptide No. 90 (peptide)
peptide: QRFXTGHXGGLYPCNGP
modifications: Pen at 4; 4-MePhe at 8; disulfide; C-terminal amide
Kd [2]: 0.2 µM

B22: Peptide No. 94 (peptide)
peptide: QRFXTGHXGGLYPCNGP
modifications: Pen at 4; PheNHAc at 8; disulfide; C-terminal amide
Kd [2]: 270 µM

B30: Peptide No. 59 (peptide)
peptide: QRFXTGHXGGLYPCNGP
modifications: Pen at 4; 3-PyridylAla at 8; disulfide; C-terminal amide
Kd [2]: 19 µM | IC50 [1]: 60 µM

B32: Peptide No. 176 (peptide)
peptide: QRFVTGHFG[dP]YYPANGP-NH2
modifications: N-terminus assumed
SMILES: CC(C)[C@H](NC(=O)[C@H](Cc1ccccc1)NC(=O)[C@H](CCCNC(=N)N)NC(=O)[C@@H](N)CCC(N)=O)C(=O)N[C@H](C(=O)NCC(=O)N[C@@H](Cc1c[nH]cn1)C(=O)N[C@@H](Cc1ccccc1)C(=O)NCC(=O)N1CCC[C@@H]1C(=O)N[C@@H](Cc1ccc(O)cc1)C(=O)N[C@@H](Cc1ccc(O)cc1)C(=O)N1CCC[C@H]1C(=O)N[C@@H](C)C(=O)N[C@@H](CC(N)=O)C(=O)NCC(=O)N1CCC[C@H]1C(N)=O)[C@@H](C)O
IC50 [4]: 230 µM

B33: Peptide No. 190 (peptide)
peptide: QRFVTGHFG[dP]WYPINGP-NH2
modifications: N-terminus assumed
SMILES: CC[C@H](C)[C@H](NC(=O)[C@@H]1CCCN1C(=O)[C@H](Cc1ccc(O)cc1)NC(=O)[C@H](Cc1c[nH]c2ccccc12)NC(=O)[C@H]1CCCN1C(=O)CNC(=O)[C@H](Cc1ccccc1)NC(=O)[C@H](Cc1c[nH]cn1)NC(=O)CNC(=O)[C@@H](NC(=O)[C@@H](NC(=O)[C@H](Cc1ccccc1)NC(=O)[C@H](CCCNC(=N)N)NC(=O)[C@@H](N)CCC(N)=O)C(C)C)[C@@H](C)O)C(=O)N[C@@H](CC(N)=O)C(=O)NCC(=O)N1CCC[C@H]1C(N)=O
IC50 [4]: 49 µM

The next lines start with the values.

IC50 [1]: 3.7 µM
B1: Peptide No. 222 (peptide)
peptide: RFXTGHXGGLYPC
modifications: Pen at 3; 3-Cl-Phe at 7; disulfide; C-terminal amide

IC50 [1]: 32 µM
B8: Peptide No. 224 (peptide)
peptide: RFXTGHXGGLYPC
modifications: Pen at 3; 3,3-Di-Phe at 7; disulfide; C-terminal amide

IC50 [3]: 2.2 µM
B10: Peptide No. 204 (peptide)
peptide: RFXTGHFXLYPC
modifications: Pen at 3; X at 8 = 6,5-bicyclic dipeptide mimic; disulfide; C-terminal amide

IC50 [3]: 23 µM
B13: Peptide No. 198 (peptide)
peptide: RFXTGHFXLYPC
modifications: Pen at 3; X at 8 = 5,5-bicyclic dipeptide mimic (drawing CHEM-US-00086); disulfide; C-terminal amide

IC50 [5]: 40 µM | Kd [6]: 1300 nM | Kd [7]: 1100 nM
B14: Peptide No. 255 (peptide)
peptide: RFXTGKFGGLYPC
modifications: Pen at 3; Sar at 9; NMeLeu at 10; disulfide; C-terminal amide

IC50 [5]: 5.5 µM | Kd [6]: 500 nM | Kd [7]: 500 nM
B15: Peptide No. 256 (peptide)
peptide: RFXTGRFGGLYPC
modifications: Pen at 3; Sar at 9; NMeLeu at 10; disulfide; C-terminal amide

IC50 [1]: 4 µM
B17: Peptide No. 221 (peptide)
peptide: RFXTGHXGGLYPC
modifications: Pen at 3; 2-Cl-Phe at 7; disulfide; C-terminal amide

IC50 [3]: 7.3 µM
B18: Peptide No. 193 (peptide)
peptide: RFXTGHFXLYPC
modifications: Pen at 3; X at 8 = (3S)-3-amino-2-oxo-1-piperidine-acetic acid; disulfide; C-terminal amide

IC50 [5]: 1.2 µM | Kd [6]: 64 nM | Kd [7]: 260 nM
B20: Peptide No. 250 (peptide)
peptide: RFXTGXFGGLYPC
modifications: Pen at 3; 3PyridylAla at 6; Sar at 9; NMeLeu at 10; disulfide; C-terminal amide

IC50 [3]: 0.62 µM
B23: Peptide No. 239 (peptide)
peptide: RFXTGHFXLYPC
modifications: Pen at 3; X at 8 = 3(S)-3-amino-2-oxo-1-azepine acetic acid; NMeLeu at 9; disulfide; C-terminal amide

IC50 [5]: 45 µM | Kd [6]: 2000 nM | Kd [7]: 3000 nM
B24: Peptide No. 251 (peptide)
peptide: RFXTGXFGGLYPC
modifications: not fully specified; Pen at 3; ThienylAla at 6; Sar at 9; NMeLeu at 10; disulfide; C-terminal amide

IC50 [8]: > 125 µM
B25: SEQ ID NO:28 (peptide)
peptide: QRFCTAHFGGLYPCNGP-NH2
modifications: disulfide 4-14 (inferred)

IC50 [8]: > 125 µM
B26: SEQ ID NO:32 (peptide)
peptide: QRFCTGHFGALYPCNGP-NH2
modifications: disulfide 4-14 (inferred)

IC50 [8]: > 125 µM
B27: SEQ ID NO:34 (peptide)
peptide: QRFCTGHFGGLAPCNGP-NH2
modifications: disulfide 4-14 (inferred)

IC50 [8]: > 125 µM
B28: SEQ ID NO:29 (peptide)
peptide: QRFCTGAFGGLYPCNGP-NH2
modifications: disulfide 4-14 (inferred)

IC50 [8]: > 125 µM
B29: SEQ ID NO:30 (peptide)
peptide: QRFCTGHAGGLYPCNGP-NH2
modifications: disulfide 4-14 (inferred)

Kd [6]: 74 nM | Kd [7]: 73 nM
B31: Peptide No. 257 (peptide)
peptide: RFXTGXFGGLYPC
modifications: Pen at 3; 4GuanylPhe at 6; Sar at 9; NMeLeu at 10; disulfide; C-terminal amide

IC50 [4]: 100 µM
B34: Peptide No. 210 (peptide)
peptide: RFVTGHFG[dP]WYPANGP-NH2
modifications: N-terminus assumed
SMILES: CC(C)[C@H](NC(=O)[C@H](Cc1ccccc1)NC(=O)[C@@H](N)CCCNC(=N)N)C(=O)N[C@H](C(=O)NCC(=O)N[C@@H](Cc1c[nH]cn1)C(=O)N[C@@H](Cc1ccccc1)C(=O)NCC(=O)N1CCC[C@@H]1C(=O)N[C@@H](Cc1c[nH]c2ccccc12)C(=O)N[C@@H](Cc1ccc(O)cc1)C(=O)N1CCC[C@H]1C(=O)N[C@@H](C)C(=O)N[C@@H](CC(N)=O)C(=O)NCC(=O)N1CCC[C@H]1C(N)=O)[C@@H](C)O
